Literature values, collected in PMC12207913.

Target: E6AP (Homo sapiens) (UniProt Q05086)
Assay: SPR

Chain of UniProt Q05086 (Q05086 whole entry): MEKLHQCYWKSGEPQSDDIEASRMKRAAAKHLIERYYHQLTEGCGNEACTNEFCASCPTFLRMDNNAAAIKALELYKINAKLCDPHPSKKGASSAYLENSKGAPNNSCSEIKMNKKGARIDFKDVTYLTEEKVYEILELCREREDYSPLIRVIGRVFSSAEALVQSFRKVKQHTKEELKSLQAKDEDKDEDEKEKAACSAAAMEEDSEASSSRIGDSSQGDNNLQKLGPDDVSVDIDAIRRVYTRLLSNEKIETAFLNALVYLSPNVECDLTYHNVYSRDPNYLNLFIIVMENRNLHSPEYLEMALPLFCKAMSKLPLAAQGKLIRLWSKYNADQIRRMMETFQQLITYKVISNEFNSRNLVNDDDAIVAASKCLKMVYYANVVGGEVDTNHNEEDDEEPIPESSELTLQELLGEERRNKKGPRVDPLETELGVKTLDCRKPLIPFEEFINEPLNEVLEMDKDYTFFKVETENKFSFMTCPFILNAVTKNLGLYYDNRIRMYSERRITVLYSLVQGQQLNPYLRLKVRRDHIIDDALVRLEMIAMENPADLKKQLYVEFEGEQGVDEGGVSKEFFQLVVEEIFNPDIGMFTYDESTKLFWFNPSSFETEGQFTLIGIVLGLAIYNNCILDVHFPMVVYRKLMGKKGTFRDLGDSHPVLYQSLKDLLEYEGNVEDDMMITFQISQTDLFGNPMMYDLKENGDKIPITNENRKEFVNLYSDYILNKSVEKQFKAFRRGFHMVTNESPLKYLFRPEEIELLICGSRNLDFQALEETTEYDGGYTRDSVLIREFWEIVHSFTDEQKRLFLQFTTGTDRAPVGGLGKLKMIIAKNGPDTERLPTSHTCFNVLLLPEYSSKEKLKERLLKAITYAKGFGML

HPV16 E6 (from UniProt P03126)
Kd: 0.144 nM
